Experimental data taken from patent publication US8512964.

Chain of apoER2 (Q14114 whole entry): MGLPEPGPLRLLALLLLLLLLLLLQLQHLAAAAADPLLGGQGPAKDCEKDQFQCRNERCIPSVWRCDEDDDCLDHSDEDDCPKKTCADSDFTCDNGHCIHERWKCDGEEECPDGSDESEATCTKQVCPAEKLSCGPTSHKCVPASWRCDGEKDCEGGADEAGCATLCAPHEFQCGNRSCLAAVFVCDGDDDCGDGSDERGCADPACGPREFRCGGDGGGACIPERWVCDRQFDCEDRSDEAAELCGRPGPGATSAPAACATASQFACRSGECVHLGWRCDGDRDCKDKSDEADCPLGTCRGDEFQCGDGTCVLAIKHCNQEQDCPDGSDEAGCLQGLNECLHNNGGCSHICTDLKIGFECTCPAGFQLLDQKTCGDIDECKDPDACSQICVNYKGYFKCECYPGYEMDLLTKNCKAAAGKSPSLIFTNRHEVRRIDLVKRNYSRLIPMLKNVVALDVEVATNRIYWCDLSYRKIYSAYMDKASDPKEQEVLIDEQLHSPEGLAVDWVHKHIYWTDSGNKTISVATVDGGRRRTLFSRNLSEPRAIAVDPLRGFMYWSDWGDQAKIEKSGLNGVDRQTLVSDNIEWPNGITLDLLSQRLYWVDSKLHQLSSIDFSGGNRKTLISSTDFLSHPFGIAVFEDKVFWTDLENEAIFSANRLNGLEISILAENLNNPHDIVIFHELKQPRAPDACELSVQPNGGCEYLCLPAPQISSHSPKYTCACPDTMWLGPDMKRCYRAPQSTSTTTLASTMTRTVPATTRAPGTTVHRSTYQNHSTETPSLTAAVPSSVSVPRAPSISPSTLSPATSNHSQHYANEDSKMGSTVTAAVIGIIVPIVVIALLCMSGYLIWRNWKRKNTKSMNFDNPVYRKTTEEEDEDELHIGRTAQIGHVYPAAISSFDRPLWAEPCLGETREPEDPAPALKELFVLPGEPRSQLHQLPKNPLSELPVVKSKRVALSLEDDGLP

B1: myosin light chain interacting protein (Mylip) (protein)
chain: MLCYVTRPDAVLMEVEVEAKANGEDCLNQVCRRLGIIEVDYFGLQFTGSKGESLWLNLRNRISQQMDGLAPYRLKLRVKFFVEPHLILQEQTRHIFFLHIKEALLAGHLLCSPEQAVELSALLAQTKFGDYNQNTAKYNYEELCAKELSSATLNSIVAKHKELEGTSQASAEYQVLQIVSAMENYGIEWHSVRDSEGQKLLIGVGPEGISICKDDFSPINRIAYPVVQMATQSGKNVYLTVTKESGNSIVLLFKMISTRAASGLYRAITETHAFYRCDTVTSAVMMQYSRDLKGHLASLFLNENINLGKKYVFDIKRTSKEVYDHARRALYNAGVVDLVSRNNQSPSHSPLKSSESSMNCSSCEGLSCQQTRVLQEKLRKLKEAMLCMVCCEEEINSTFCPCGHTVCCESCAAQLQSCPVCRSRVEHVQHVYLPTHTSLLNLTVI
- degradation in the cotransfection assay (VLDLR): the VLDLR and apoER2, are both capable of being degraded by Idol in our cotransfection assay
- degradation in the cotransfection assay (apoER2): the VLDLR and apoER2, are both capable of being degraded by Idol in our cotransfection assay
- degradation in the cotransfection assay (EGFR receptor): Several other members, including LRP-1, LRP-1b and the EGFR receptor are not
- degradation in the cotransfection assay (LRP-1b): Several other members, including LRP-1, LRP-1b and the EGFR receptor are not
- degradation in the cotransfection assay (LRP-1): Several other members, including LRP-1, LRP-1b and the EGFR receptor are not
